Patent US20250034601

Legend:
[1] = target: T1, MBP-tagged PdBSβ (beta subunit of Prunus dulcis benzaldehyde synthase)
T1 chain: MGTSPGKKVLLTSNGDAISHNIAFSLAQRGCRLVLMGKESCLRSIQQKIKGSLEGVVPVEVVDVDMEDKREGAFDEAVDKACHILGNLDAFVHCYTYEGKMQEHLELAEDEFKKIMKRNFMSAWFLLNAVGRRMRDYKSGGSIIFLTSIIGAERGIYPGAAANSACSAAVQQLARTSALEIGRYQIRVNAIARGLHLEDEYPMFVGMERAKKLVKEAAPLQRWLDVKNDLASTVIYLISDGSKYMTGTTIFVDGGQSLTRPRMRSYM

[2] = target: T2, MBP-tagged AtBSβ (beta subunit of Arabidopsis thaliana benzaldehyde synthase)
T2 chain: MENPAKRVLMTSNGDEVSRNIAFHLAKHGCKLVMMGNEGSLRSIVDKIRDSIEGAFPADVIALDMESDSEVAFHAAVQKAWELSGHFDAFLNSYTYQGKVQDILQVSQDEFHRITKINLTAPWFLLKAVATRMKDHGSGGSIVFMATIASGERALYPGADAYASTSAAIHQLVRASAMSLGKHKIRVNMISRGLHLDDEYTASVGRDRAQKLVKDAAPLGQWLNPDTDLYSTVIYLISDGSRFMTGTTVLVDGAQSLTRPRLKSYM

[3] = target: T3, MBP-tagged PhBSβ (beta subunit of Petunia hybrida benzaldehyde synthase)
T3 chain: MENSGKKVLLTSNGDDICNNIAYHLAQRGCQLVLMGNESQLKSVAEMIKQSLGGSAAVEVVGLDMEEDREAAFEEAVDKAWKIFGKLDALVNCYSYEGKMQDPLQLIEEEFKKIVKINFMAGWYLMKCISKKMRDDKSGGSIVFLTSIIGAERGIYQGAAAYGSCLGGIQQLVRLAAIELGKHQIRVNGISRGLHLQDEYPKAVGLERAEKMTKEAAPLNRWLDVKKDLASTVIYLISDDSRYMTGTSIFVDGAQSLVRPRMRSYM

[4] = target: T4, MBP-tagged SlBSβ (beta subunit of Solanum lycopersicum benzaldehyde synthase)
T4 chain: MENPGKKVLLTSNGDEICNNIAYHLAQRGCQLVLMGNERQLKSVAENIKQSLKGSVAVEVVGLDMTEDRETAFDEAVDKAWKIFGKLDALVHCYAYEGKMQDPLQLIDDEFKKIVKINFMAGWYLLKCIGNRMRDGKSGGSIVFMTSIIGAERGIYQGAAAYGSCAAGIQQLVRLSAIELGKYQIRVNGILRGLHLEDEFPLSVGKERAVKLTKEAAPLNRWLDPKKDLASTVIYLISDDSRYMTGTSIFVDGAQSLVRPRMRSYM

B1: MBP-PhBSα (maltose binding protein-tagged alpha subunit of Petunia hybrida benzaldehyde synthase) (protein)
chain: MEKQTQARFLEPWRDLKGKVVMVTGASSGIGLDLCLDLAKAGCKIIAAARRVDRLKSLCNQINAAADDDDDNNRAVAVELDVSANGDAIEAAVKEAWGAFGRIDALVNNAGVRGTVHSPLELTEEECHNTFRTNLTGTWLVSKYVCKFMRDAKQGGSVINISSIAGLNRGQLPGGLAYVSSKGAVNMVTKVMALELGVDKIRVNSISPGLFKSEITQGLIQKEWLNNVAMRTIPLRTHGNSADPALTSVVRYLIHDSSEYVSGNLFIVDAGATLPGVPIFSSL
[1]
  BS activity of cross-species heterodimers (subunits mixed 1:1): interactions of PdBSβ and SlBSβ with PhBSα resulted in hybrid enzymes with activities almost identical to that of PhBS
[2]
  BS activity of cross-species heterodimers (subunits mixed 1:1): only the AtBSβ subunit was not able to produce active enzymes upon interaction with PhBSα and SlBSα
[3]
  benzaldehyde synthase activity (benzoyl-CoA + NADPH, GC-MS): Neither of the two purified recombinant proteins displayed benzaldehyde synthase activity when tested alone ... however, benzaldehyde was efficiently formed when the two subunit proteins were mixed in equal amounts (e.g., a 1:1 ratio)
[4]
  BS activity of cross-species heterodimers (subunits mixed 1:1): interactions of PdBSβ and SlBSβ with PhBSα resulted in hybrid enzymes with activities almost identical to that of PhBS

B2: MBP-tagged SlBSα (alpha subunit of Solanum lycopersicum benzaldehyde synthase) (protein)
chain: METHAKSVRQLEPWGELAGKVVMVTGASSGIGRDFCSDLSKAGCRIIAAARRIDRLQSLCDEINSNSSNGSTKSSQDLRAVAIELDVSANGSAIEAAVQKAWDAFGRIDGLVNNAGFRGSVLSPLELSEEEWEKIHKTNLRGAWLVTKYVCMHMRAANQGGSIINISSIAGINRGQLPGSLAYTSSKEALNSITKVLALELGPYKIRVNSISPGLFKSEITEGLIQKDWIKNIELRTIPLRTHGTSHPALTSVVRYLIHDSSEYVSGNMFIVDAGATLPGVPIFSSL
[1]
  BS activity of hybrid enzyme relative to SlBS: activities of SlBSα-PhBSβ and SlBSα-PdBSβ were 6.5-fold lower and 2.7-fold higher, respectively, as compared with SlBS
[2]
  BS activity of cross-species heterodimers (subunits mixed 1:1): only the AtBSβ subunit was not able to produce active enzymes upon interaction with PhBSα and SlBSα
[3]
  BS activity of hybrid enzyme relative to SlBS: activities of SlBSα-PhBSβ and SlBSα-PdBSβ were 6.5-fold lower and 2.7-fold higher, respectively, as compared with SlBS
[4]
  benzaldehyde synthase activity (GC-MS): benzaldehyde synthases from all three organisms (i.e., Solanum lycopersicum, Prunus dulcis, and Arabidopsis thaliana) showed activity only when two purified recombinant subunits were combined

B3: MBP-tagged AtBSα (alpha subunit of Arabidopsis thaliana benzaldehyde synthase) (protein)
chain: MANQVADHLEPWRHLHGKVVMVTGASSGLGREFCLDLAKAGCRIVAAARRIDRLQSVCDEINQLTVTAPSSSSSSSSVNGPGSSRAVAVELDISADGPAIEKSVNKAWDAFGRIDALVNNAGVRGNVSSSLELSEEEWNNVFKTNLTGSWLVSKYVSIRMRDADQGGSIINVSSIAGLHRGYLPGAVAYNCSKAGVNTLAKVMAMELGVHKIRVNAISPGLFRSEITEGLMKKDWLHNVAMKTVPLRTFGTSDPALTSLVRYLVHDSSEYVSGNVYIVDAGATLPGVPIFSAL
[1]
  BS activity of hybrid enzyme: the AtBSα-PdBSβ hybrid was as active as PdBS
  BS activity of hybrid enzyme relative to AtBS: increasing activity from 4.6- to 7.8-fold in AtBSα-SlBSβ and AtBSα-PdBSβ, respectively, relative to AtBS
[2]
  benzaldehyde synthase activity (GC-MS): benzaldehyde synthases from all three organisms (i.e., Solanum lycopersicum, Prunus dulcis, and Arabidopsis thaliana) showed activity only when two purified recombinant subunits were combined
[3]
  BS activity of hybrid enzyme relative to AtBS: interactions of the three tested β subunits with AtBSα promoted activities of hybrid proteins
[4]
  BS activity of hybrid enzyme relative to AtBS: increasing activity from 4.6- to 7.8-fold in AtBSα-SlBSβ and AtBSα-PdBSβ, respectively, relative to AtBS

B4: MBP-tagged PdBSα (alpha subunit of Prunus dulcis benzaldehyde synthase) (protein)
chain: MANQVADHLEPWRHLHGKVVMVTGASSGLGREFCLDLAKAGCRIVAAARRIDRLQSVCDEINQLTVTAPSSSSSSSSVNGPGSSRAVAVELDISADGPAIEKSVNKAWDAFGRIDALVNNAGVRGNVSSSLELSEEEWNNVFKTNLTGSWLVSKYVSIRMRDADQGGSIINVSSIAGLHRGYLPGAVAYNCSKAGVNTLAKVMAMELGVHKIRVNAISPGLFRSEITEGLMKKDWLHNVAMKTVPLRTFGTSDPALTSLVRYLVHDSSEYVSGNVYIVDAGATLPGVPIFSAL
[1]
  benzaldehyde synthase activity (GC-MS): benzaldehyde synthases from all three organisms (i.e., Solanum lycopersicum, Prunus dulcis, and Arabidopsis thaliana) showed activity only when two purified recombinant subunits were combined
[3]
  BS activity of hybrid enzyme relative to PdBS: the activities of hybrid enzymes comprising PdBSα were up to 2.5-fold lower than that of PdBS enzyme
[4]
  BS activity of hybrid enzyme relative to PdBS: the activities of hybrid enzymes comprising PdBSα were up to 2.5-fold lower than that of PdBS enzyme
